Drawing on patent publication CN113150157A, this text covers 发光值 and 浓度值 (检测表观值) for one molecule.

Experiment [1] deals with 人成纤维细胞生长因子2(FGF2) (human) (UniProt P09038). Nature of the experiment: sandwich chemiluminescence immunoassay, AntiVEGF_C capture and AntiVEGF_N-HRP detection, FGF2 at 20μg/ml (specificity test).
Experiment [2] has as its target 表皮生长因子(EGF) (UniProt P01133). In words: sandwich chemiluminescence immunoassay, AntiVEGF_C capture and AntiVEGF_N-HRP detection, EGF at 30ng/ml; apparent VEGF concentration.
Experiment [3] addresses 人成纤维细胞生长因子2(FGF2) (human) (UniProt P09038). Nature of the experiment: sandwich chemiluminescence immunoassay, AntiVEGF_C capture and AntiVEGF_N-HRP detection, FGF2 at 20μg/ml; apparent VEGF concentration.
Experiment [4] deals with 表皮生长因子(EGF) (UniProt P01133). Nature of the experiment: sandwich chemiluminescence immunoassay, AntiVEGF_C capture and AntiVEGF_N-HRP detection, EGF at 30ng/ml (specificity test).

Sequence of UniProt P09038 (P09038 143-288 limits assumed): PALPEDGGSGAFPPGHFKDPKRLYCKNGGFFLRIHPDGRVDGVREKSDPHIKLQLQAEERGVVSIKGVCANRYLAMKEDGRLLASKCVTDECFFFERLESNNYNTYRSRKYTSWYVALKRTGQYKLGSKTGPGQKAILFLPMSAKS
Sequence of UniProt P01133 (P01133 971-1023 limits assumed): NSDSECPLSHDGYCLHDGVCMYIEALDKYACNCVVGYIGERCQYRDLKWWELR

B1: 单克隆抗体AntiVEGF_C (antibody, V domains shown)
VH: EVQLVESGGGLVQPGGSRKLSCAASGFTFSSFGMHWVRQAPEKGLEWVAFINSDSSAFYYADTVQDRFTISRDNPKNTLFLQMTSLRSEDTAMYYCARAGNHYYGGAYWGQGTLVTVSA
VL: QIVLSQSPAILSASPGEKVTMTCRASSSVSYMHWYQQRPGSSPKPWIYDTSNLASGVPVRFSGSGSGTSYSLTISRVEVEDAATYYCQQWSRHPPITFGSGTKLEIK
Consider B1, for which the 发光值 in experiment [1] came out at 14900 RLU; with 表皮生长因子(EGF) [4], 8770 RLU. The 浓度值 (检测表观值) is 6.57 pg/mL with 表皮生长因子(EGF) [2] and 11.3 pg/mL in experiment [3].
